In patent publication US20240091345A1:

Legend:
[1] = target: Recombinant gI protein (~46 kDa) from HSV-2 (BMP1052b or BMP1292) (HSV-2); experiment: indirect ELISA on coated HSV-2 gI, one mouse
[2] = target: Recombinant gE/gI heterodimer protein (BMP1299) from HSV-1 (HSV-1) (UniProt P06487); experiment: indirect ELISA on coated HSV-1 gE/gI
[3] = target: Recombinant gE protein (~51 kDa) from HSV-2 (BMP1049 or BMP1291) (HSV-2); experiment: indirect ELISA on coated HSV-2 gE
[4] = target: Recombinant gI protein (~46 kDa) from HSV-2 (BMP1052b or BMP1292) (HSV-2); experiment: indirect ELISA on coated HSV-2 gI

Chain of UniProt P06487 (P06487 whole entry, one chain of several): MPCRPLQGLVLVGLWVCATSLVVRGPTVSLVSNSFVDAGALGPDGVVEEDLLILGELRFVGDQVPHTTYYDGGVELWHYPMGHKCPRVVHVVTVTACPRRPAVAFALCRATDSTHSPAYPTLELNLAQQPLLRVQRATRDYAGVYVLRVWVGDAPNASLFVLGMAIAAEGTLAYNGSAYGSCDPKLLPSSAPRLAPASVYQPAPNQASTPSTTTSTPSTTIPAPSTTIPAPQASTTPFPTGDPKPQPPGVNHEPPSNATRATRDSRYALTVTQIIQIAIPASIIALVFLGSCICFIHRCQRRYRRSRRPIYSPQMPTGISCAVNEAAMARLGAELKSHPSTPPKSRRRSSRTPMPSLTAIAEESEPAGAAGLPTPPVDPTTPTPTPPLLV

## serum of CB6F1 mice injected with NaCl 150 mM (Example 1, group 6, negative control) (antibody)
[1]
  IgG titer: 135 EU/mL

## serum of CB6F1 mice injected with NaCl 150 mM (Example 2, group 7, negative control) (antibody)
[2]
  IgG titer: 11 EU/mL

## serum of CB6F1 mice injected with NaCl 150 mM (Example 3, group 7, negative control) (antibody)
[3]
  IgG titer: 17 EU/mL
[4]
  IgG titer: 17 EU/mL
